Source: US20120142103A1, “METHOD FOR INDUCING DIFFERENTIATION INTO EPITHELIAL PROGENITOR CELL/STEM CELL POPULATION AND CORNEAL EPITHELIAL CELL POPULATION FROM INDUCED PLURIPOTENT STEM CELLS” (priority 2010, published 2012)

Test system: mouse iPS cells
Assay: Modified KCM method: differentiation of mouse iPS cells on collagen into epithelial progenitor/stem cells (immunostaining, flow cytometry of keratin 14-positive cells)
Format: cell-based
Description: The iPS cells on the SNL feeders were collected by treatment with 0.25% trypsin/EDTA and further pipetted to prepare an iPS cell suspension (single cell suspension). The obtained cell suspension was incubated on a gelatin-coated culture dish for approximately 1 to 2 hours. The supernatant was collected to thereby allow only the feeder cells to adhere to the dish and collect only the iPS cells. The number of the obtained iPS cells was counted. The iPS cells were inoculated at a density of 0.5 to 10×10^3 cells/cm^2 onto a type IV collagen-coated culture dish as described below and cultured at 37° C. for 7 to 28 days in a 5% CO2 atmosphere using a KCM medium shown below. 0.5 nM BMP4, (R&D System) was further added to the KCM medium, and the cells were cultured in the same way as above.
The cells after differentiation induction were examined for the expressions of a basal epithelial cell marker keratin 14, an epithelial progenitor cell/stem cell marker p63, and a corneal epithelial differentiation marker keratin 12 by an immunostaining method. Moreover, keratin 14-positive cells were analyzed by flow cytometry. The immunostaining method and the flow cytometry analysis will be shown in detail below.
After fixation in cold methanol (−30° C./20 min), 5% NST was added to the cells, which were then left at room temperature for 30 minutes for blocking. […]

B1: BMP4: Bone Morphogenetic Protein 4, one of bone morphogenetic factors, belongs to the transforming growth factor-β (TGF-β) superfamily (protein, UniProt P12644 293-408, looked up)
Bone morphogenetic protein 4: SPKHHSQRARKKNKNCRRHSLYVDFSDVGWNDWIVAPPGYQAFYCHGDCPFPLADHLNSTNHAIVQTLVNSVNSSIPKACCVPTELSAISMLYLDEYDKVVLKNYQEMVVEGCGCR
- induction efficiency of differentiation (keratin 14-positive cells, flow cytometry) (0.5 nM BMP4 added to KCM medium, day 28, 2.9% without BMP4): 6.0%
- epithelial induction efficiency (keratin 14-positive and p63-positive cells, immunostaining) (BMP4 added to KCM medium, day 28): significantly increased epithelial induction efficiency
